Assay results from patent US20120207741A1.

Target: protein of the maize/soybean meal (SBM) substrate (6:4)

% dig. CP (digested protein, peptides of 1500 Dalton or below, gel filtration HPLC) in the in vitro pancreatic insufficiency digestion model (% dig. CP of total protein): 49.9
Substance: protease derived from Nocardiopsis sp. NRRL 18262 (SEQ ID NO: 1) (enzyme)
